Assay results reported in the supplement of paper PMC5998384.

Experiments:
[1] = tested on: HeLa Kyoto; test: melting temperature (median over replicates), in situ; higher = more thermally stable
[2] = tested on: HeLa Kyoto; test: solubility in G1/S (NP-40 vs SDS abundance) (log2 ratio); higher = more soluble; details: cell cycle stage: G1/S
[3] = tested on: HeLa Kyoto; test: thermal stability score vs G1/S (z-score of summed log2 fold changes over temperatures); higher = more thermally stable than in G1/S
[4] = tested on: HeLa Kyoto; test: solubility change mitosis vs G1/S (difference of NP-40 vs SDS log2 ratios) (log2 ratio difference); higher = more soluble in mitosis
[5] = cell cycle stage: early G1 (4.5 h after nocodazole release)
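For melting temperature (median over replicates), in situ in this document: HeLa Kyoto cells synchronized by double thymidine or nocodazole block, proteins quantified by TMT10plex mass spectrometry, three independent biological replicates.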
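For solubility change mitosis vs G1/S (difference of NP-40 vs SDS log2 ratios) in this document: synchronized HeLa Kyoto cells (double thymidine block for G1/S, nocodazole release for mitosis), protein amounts in NP-40 versus SDS lysates quantified by mass spectrometry, three biological replicates.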
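For solubility in G1/S (NP-40 vs SDS abundance) in this document: HeLa Kyoto cells arrested at G1/S by double thymidine block, proteins quantified by TMT10plex mass spectrometry in mild NP-40 versus SDS extracts, three biological replicates.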
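For thermal stability score vs G1/S (z-score of summed log2 fold changes over temperatures) in this document: synchronized HeLa Kyoto cells, proteins quantified by TMT10plex mass spectrometry, three biological replicates, mitosis taken 0.5 h after nocodazole release, G1/S directly after double thymidine block.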

Sequence | melting temperature ([1]; cell cycle stage: G1/S) [°C] | melting temperature ([1]; cell cycle stage: mitosis) [°C] | solubility in G1/S (log2) [2] | thermal stability score [3, 5] | thermal stability score ([3]; cell cycle stage: mitosis) | solubility change mitosis (log2) [4]
MELRVGNKYRLGRKIGSGSFGDIYLGANIASGEEVAIKLECVKTKHPQLHIESKFYKMMQGGVGIPSIKWCGAEGDYNVMVMELLGPSLEDLFNFCSRKFSLKTVLLLADQMISRIEYIHSKNFIHRDVKPDNFLMGLGKKGNLVYIIDFGLAKKYRDARTHQHIPYRENKNLTGTARYASINTHLGIEQSRRDDLESLGYVLMYFNLGSLPWQGLKAATKRQKYERISEKKMSTPIEVLCKGYPSEFSTYLNFCRSLRFDDKPDYSYLRQLFRNLFHRQGFSYDYVFDWNMLKFGAARNPEDVDRERREHEREERMGQLRGSATRALPPGPPTGATANRLRSAAEPVASTPASRIQPAGNTSPRAISRVDRERKVSMRLHRGAPANVSSSDLTGRQEVSRIPASQTSVPFDHLGK [CSNK1E] | 49.7 | 49 | -0.212 | 0.572 | 0.264 | 0.102
MELSAVGERVFAAEALLKRRIRKGRMEYLVKWKGWSQKYSTWEPEENILDARLLAAFEEREREMELYGPKKRGPKPKTFLLKAQAKAKAKTYEFRSDSARGIRIPYPGRSPQDLASTSRAREGLRNMGLSPPASSTSTSSTCRAEAPRDRDRDRDRDRERDRERERERERERERERERERGTSRVDDKPSSPGDSSKKRGPKPRKELPDPSQRPLGEPSAGLGEYLKGRKLDDTPSGAGKFPAGHSVIQLARRQDSDLVQCGVTSPSSAEATGKLAVDTFPARVIKHRAAFLEAKGQGALDPNGTRVRHGSGPPSSGGGLYRDMGAQGGRPSLIARIPVARILGDPEEESWSPSLTNLEKVVVTDVTSNFLTVTIKESNTDQGFFKEKR [CBX8] | 46.1 | 49.5 | -0.615 | 2.83 | 5.27 | 0.612
MENGYTYEDYKNTAEWLLSHTKHRPQVAIICGSGLGGLTDKLTQAQIFDYGEIPNFPRSTVPGHAGRLVFGFLNGRACVMMQGRFHMYEGYPLWKVTFPVRVFHLLGVDTLVVTNAAGGLNPKFEVGDIMLIRDHINLPGFSGQNPLRGPNDERFGDRFPAMSDAYDRTMRQRALSTWKQMGEQRELQEGTYVMVAGPSFETVAECRVLQKLGADAVGMSTVPEVIVARHCGLRVFGFSLITNKVIMDYESLEKANHEEVLAAGKQAAQKLEQFVSILMASIPLPDKAS [PNP] | 60.3 | 60.2 | 0.301 | -0.982 | -1.39 | -0.144
MENSQLCKLFIGGLNVQTSESGLRGHFEAFGTLTDCVVVVNPQTKRSRCFGFVTYSNVEEADAAMAASPHAVDGNTVELKRAVSREDSARPGAHAKVKKLFVGGLKGDVAEGDLIEHFSQFGTVEKAEIIADKQSGKKRGFGFVYFQNHDAADKAAVVKFHPIQGHRVEVKKAVPKEDIYSGGGGGGSRSSRGGRGGRGRGGGRDQNGLSKGGGGGYNSYGGYGGGGGGGYNAYGGGGGGSSYGGSDYGNGFGGFGSYSQHQSSYGPMKSGGGGGGGGSSWGGRSNSGPYRGGYGGGGGYGGSSF [HNRNPA0] | 45.2 | 47 | -0.218 | 3.72 | 12.8 | 0.24
MEPAVSEPMRDQVARTHLTEDTPKVNADIEKVNQNQAKRCTVIGGSGFLGQHMVEQLLARGYAVNVFDIQQGFDNPQVRFFLGDLCSRQDLYPALKGVNTVFHCASPPPSSNNKELFYRVNYIGTKNVIETCKEAGVQKLILTSSASVIFEGVDIKNGTEDLPYAMKPIDYYTETKILQERAVLGANDPEKNFLTTAIRPHGIFGPRDPQLVPILIEAARNGKMKFVIGNGKNLVDFTFVENVVHGHILAAEQLSRDSTLGGKAFHITNDEPIPFWTFLSRILTGLNYEAPKYHIPYWVAYYLALLLSLLVMVISPVIQLQPTFTPMRVALAGTFHYYSCERAKKAMGYQPLVTMDDAMERTVQSFRHLRRVK [NSDHL] | 53.1 | 53 | -0.0523 | 1.89 | 1.38 | -0.127
MEPDIIRMYSSSPPPLDNGAEDDDDDEFGEFGGFSEVSPSGVGFVDFDTPDYTRPKEEFVPSNHFMPIHEFSENVDSLTSFKSIKNGNDKDITAELSAPVKGQSDVLLSTTSKEIISSEMLATSIDGMERPGNLNKVVEQRQNVGTLESFSPGDFRTNMNVVHQNKQLESCNGEKPPCLEILTNGFAVLETVNPQGTDDLDNVADSKGRKPLSTHSTEYNLDSVPSPAEEFADFATFSKKERIQLEEIECAVLNDREALTIRENNKINRVNELNSVKEVALGRSLDNKGDTDGEDQVCVSEISIVTNRGFSVEKQGLPTLQQDEFLQSGVQSKAWSLVDSADNSEAIRREQCKTEEKLDLLTSKCAHLCMDSVKTSDDEVGSPKEESRKFTNFQSPNIDPTEENDLDDSLSVKNGDSSNDFVTCNDINEDDFGDFGDFGSASGSTPPFVTGTQDSMSDATFEESSEHFPHFSEPGDDFGEFGDINAVSCQEETILTKSDLKQTSDNLSEECQLARKSSGTGTEPVAKLKNGQEGEIGHFDSVPNIQDDCNGFQDSDDFADFSSAGPSQVVDWNAFEDEQKDSCSWAAFGDQQATESHHRKEAWQSHRTDENIDTPGTPKTHSVPSATSKGAVASGHLQESATSVQTALLNRLERIFEACFPSILVPDAEEEVTSLKHLLETSTLPIKTREALPESGELLDVWTELQDIHDAHGLRYQWGGSHSNKKLLSSLGIDTRNILFTGNKKQPVIVPMYAAGLGMLEPTKEPLKPLSAAEKIASIGQTATMSPDMNTCTSDQFQESLPPVQFDWSSSGLTNPLDASGGSTLLNLDFFGPVDDSSSSSSTTIPGVDPELYELTTSKLEISTSSLKVTDAFARLMSTVEKTSTSTRKPKREEHLSEEAIKVIAGLPDLTFMHAKVLMFPATLTPSTSSQEKADG [AFTPH] | 52 | 51.9 | -0.151 | -0.487 | -1.23 | -0.029
